Assay results from the supplement of paper PMC9170038.

Tested on: K4 kissing-loop RNA reporter
Test: apparent KD of K4 kissing-loop reporter; higher = weaker reporter binding
Conditions: Eterna round: R107
Method: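 RNA-MaP round R107: designed RNA switches with theophylline, tryptophan, arginine or FMN aptamers are transcribed on-chip within common flanks. They are titrated with a labelled K4 kissing-loop RNA reporter in RNA-MaP buffer (100 mM Tris pH 7.5, 80 mM KCl, 4 mM MgCl2), without ligand or with the indicated ligand. Median apparent KD per design.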

[1] = input ligand: theophylline 20 uM
[2] = input ligand: tryptophan 2.4 mM
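Note: bound reporter read as fluorescence of individual clusters on recovered sequencing chips by microscopy, with normalized cluster intensities fitted with a binding model.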

Row | Sequence | apparent KD of K4 kissing-loop reporter (input ligand: FMN 200 uM) [nM] | apparent KD of K4 kissing-loop reporter (input ligand: arginine 13.2 mM) [nM] | apparent KD of K4 kissing-loop reporter (input ligand: none) [nM] | apparent KD of K4 kissing-loop reporter [1] [nM] | apparent KD of K4 kissing-loop reporter [2] [nM]
1 | GCAACUCUCAGUGAUGUUGAGUUAUCGGAAGGAGCGCGUGAAAACGCAGGUAGGUCGCCGAUACAAUGAGUUUCUCGUUGGUUGC [Arginine A K4 21] | 769 | 489 | 664 | 554 | 569
2 | GCAAUUCUCAGUGAUGUUGAGUAAUCGGAAGGAGCGCGUGAAAACGCAGGUAGGUCGCCGAAACAUGAAGUAUCUUCGUGUUUGC [Arginine A K4 24] | 180 | 190 | 215 | 226 | 168
3 | GCAGGACGAGGAGGAGGAUGAAUUACUGAAGGAGCGCAUAUGGUUGCAGGUAGGUCGCGGUAAACAAGUAUAGUGAUGUUAUAUC [SSArgA.P] | 913 | 586 | 552 | 621 | 584
4 | GCAGGACGAGGAGGAGGAUGAAUUACUGAAGGAGCGCAUAUUUUUGCAGGUAGGUCGCGGUAAACAAGUAUAGUGAUGUUAUAUA [SSArgA.M] | 415 | 464 | 446 | 514 | 264
5 | GCCAGGCAUCUGCAGAGUGAUGUUCAAAAGCGAGGACCGGUACGGCCGCCACUCGAAAGCAGAUGCCUGGGCGUACAAAGUACGC [idea] | 1140 | 262 | 984 | 562 | 899
6 | GCCGAAUCGUUGGGCUCAGUGAUGUUGAUCCGAGGACCGGUACGGCCGCCACUCGAAUGGCAGUGACCACACUGGUAACGUUAAA [theeternabot_exclusion_KL_Trp_A_43] | 573 | 490 | 699 | 575 | 261
7 | GCCGUACGCAUGGAUACCAGAGAUGUUAGUCUCGAUGCCAGUGAUGUUGGCUAUAGCAUACUCCCUUGGCAGCCAUGCGUACGGC | 132 | 113 | 128 | 113 | 107
8 | GCCGUACGCAUGGAUACCAGCAAUUAUGCUCGUGAUCUAGUGAUGUUAGUGGCGAAAGUUUGCCCUUGGCAGCCAUGCGUACGGC | 224 | 172 | 244 | 134 | 182
9 | GCCGUACGCAUGGAUACCAGCGUACGUCACCUAGCAGUGAUGUUGCUAUUGCCACGUAAACGCCCUUGGCAGCCAUGCGUACGGC | 495 | 448 | 478 | 181 | 445
10 | GCCGUAGAUGGAAGGAGCGAGGUAGACUGUUGAAGUGAUGUUUCAACUCAUUAAGCCCAACCUCAGGUAGGUCGCCAUCUACGGC | 133 | 110 | 115 | 118 | 115
11 | GCCGUAGAUGGAAGGAGCGUGUCAAAGUGAUGUUUUGAUUAACUCCCUAAGGGAUAGAUGACACAGGUAGGUCGCCAUCUACGGC | 74.5 | 63.5 | 74.3 | 102 | 63.3
12 | GCCGUAGAUGGAAGGAGCGUGUCCAAACCUCAUUCAUGUACACACGAGUGAUGUUCGUGUACACAGGUAGGUCGCCAUCUACGGC | 413 | 314 | 374 | 410 | 363
13 | GCCGUAGAUUGAAGGAGCGAGGCUACUUAAAGACCGAGUGAUGUUCGGGAACGUGAAACUCCUCAGGUAGGUCGCAAUCUACGGC | 284 | 235 | 280 | 227 | 267
14 | GCCGUAGAUUGAAGGAGCGCCUUCUUACCAAGAGUGAUGUUCUUUGGUACCAUGUUCAGUAGGCAGGUAGGUCGCAAUCUACGGC | 292 | 258 | 332 | 387 | 390
15 | GCCUACGCUGCAGGAUAUAGUUACAGCGACUUAGCCGUUGUAUGUCCAUGGUUCAGUGAUGUUGAACUAGAAGGGCAGCGUAGGC [#02 K4 FMN B Exclusion] | 285 | 127 | 132 | 134 | 154
16 | GCGAGUUUGCAAGGAUAUCGACCGUCGUACGACCAGUGAUGUUGGGAGUACUUUCAAAAUCGAUUUCGAGAAGGUGCUGGCAUCA [theeternabot_sameState_KL_FMN_B_12] | 271 | 212 | 250 | 248 | 234
17 | GCGAUCUGCAUCGAUACCAGCCCAGUGAUGUUGGGCUGCUCUCCAUGGGUGCCAGACACGGGCCCUUGGCAGCGAGGUAGAGCCC [Maonzaa] | 129 | 118 | 109 | 112 | 115
18 | GCGCGGGAGUGAUGUUCCAAGUGGUGUUAGCGAGGACCGGUACGGCCGCCACUCGUUACGGCCGGGCCGUAGGAUACACUGGCGC [Same State - Tryptophan A (Freestyle 17)] | 308 | 218 | 286 | 290 | 240
19 | GCGCGUCAUGUCAGCGGUGACACUGUCGAUACCAGCGCCGCAAGGCGCCCUUGGCAGCGACGUGCUGGAGUGAUGUUCCAGCGUC [#2 Exclusion - Theophylline A Attempt #22 (HarryS)] | 159 | 113 | 145 | 142 | 140
20 | GCGCGUCAUGUCAGCGGUGACUACGUCGAUACCAGCAGGGAAACCUGCCCUUGGCAGCGACGCGCUGGAGUGAUGUUCCGACGGA [#2 Exclusion - Theophylline A Attempt #6 (HarryS)] | 434 | 431 | 544 | 854 | 442
21 | GCGCGUCAUGUCGGCGGUGACUACGCCGAUACCAGCCGGGAAACCGGCCCUUGGCAGCGGCGCGCCGGAGUGAUGUUCCGACAGA [#2 Exclusion - Theophylline A Attempt #3 (HarryS)] | 126 | 205 | 190 | 359 | 109
22 | GCGGGCCCUGGAGGAUAUGAGUCGAGUGAUGUUCGGCGGUCCAUGCCGAUGCGGCGUUAUGCCCUUUUAGAAGGCCAGGGCCCGC [#2 Exclusion - FMN B Attempt #7 (HarryS)] | 392 | 236 | 310 | 243 | 277

Row | Sequence | apparent KD of K4 kissing-loop reporter (input ligand: FMN 200 uM) [nM] | apparent KD of K4 kissing-loop reporter (input ligand: arginine 13.2 mM) [nM] | apparent KD of K4 kissing-loop reporter (input ligand: none) [nM] | apparent KD of K4 kissing-loop reporter [1] [nM] | apparent KD of K4 kissing-loop reporter [2] [nM]
23 | GCGUCAUCGAAAGGAUAUGGAGUAGUGAUGUUGAUCCAUAUGCUCACGCAUAGCCGAGAACAUCGACCAGAAGGUUCAAGAACUG [theeternabot_exclusion_KL_FMN_B_41] | 672 | 509 | 757 | 520 | 459
24 | GCUAAGGAGUGAUGUUCCAAGUGAUGUUAACGAGGACCGGUACGGCCGCCACUCGAUACGGCCGGACCGUAAGAUAAACUACAGC [Same State - Tryptophan A (Freestyle 6)] | 206 | 182 | 213 | 279 | 194
25 | GCUAUGGUAGGAAGGAGCGCUUAUUCAUUAAUAAGAGUGAUGUUCGAUAAUGAAUAUUUAUAGCAGGUAGGUCGCCUACUAUAGC [Arginine B K4 2] | 300 | 223 | 230 | 206 | 237
26 | GCUAUGGUAGGAAGGAGCGCUUAUUUAUUUUUAAGAGUGAUGUUCGUUAGUAGAUAGUUAAAGCAGGUAGGUCGCCUACUAUAGC [Arginine B K4 15] | 146 | 177 | 171 | 161 | 100
27 | GCUAUGGUAGGAAGGAGCGCUUGUUCGGUCAUAUGAGUGAUGUUCGAGACUGAGCAUUUAUAGCAGGUAGGUCGCCUACUAUAGC [Arginine B K4 10] | 164 | 179 | 181 | 160 | 175
28 | GCUCGUCAUGUCAGCGGUGGUACUGUCGAUACCAGUGCCGUAAGGCGCCCUUGGCAGCGAUGCGCUGGAGUGAUGUUCCAGCGUU [#2 Exclusion - Theophylline A Attempt #32 (HarryS)] | 110 | 92.9 | 116 | 120 | 119
29 | GGAGAGCGGAACGAUACCAGCUGCGGCACGCACCGGAAGUUAAGCCAGUGAUGUUGGCGGAGCCCUUGGCAGCGUGCGCGCGUCC [Abeusma] | 122 | 93.3 | 104 | 145 | 105
30 | GGAGUUACCUGGGAUACCAGCCGGAGGCCCAGAGCUCGGAGUGAUGUUCUGGGAUGUUUCGGCCCUUGGCAGCUCUGGGUCUCCG [#2 Exclusion - Theophylline B Attempt #5 (HarryS)] | 1050 | 627 | 806 | 433 | 1410
31 | GGAGUUACCUGGGAUACCAGUCGGAGUCUCAGAGCACGGAGUGAUGUUCUGGGAUGUUUCGGCCCUUGGCAGCUCUGGGACUCCA [#2 Exclusion - Theophylline B Attempt #15 (HarryS)] | 317 | 209 | 268 | 219 | 228
32 | GGAUAGGAUAGAGGAUAUGGAAAACACAGAAGUGACUUGUUGUGUUUAUCCAUAGGGAGUGAUGUUCCAGAAGGCUGUCCUAUCG [MatMod 22 - Jieux - Exclusion - FMN B] | 333 | 206 | 206 | 230 | 154
33 | GGAUCCACCAGUGAUGUUGGAGAAAACUCUAAGGAUAUGACGAAAGUCAGAAGGUGGUAGACUGGACAAAGUCCGGUGGGAUCCA [FmnA10 U30+G78] | 264 | 229 | 350 | 406 | 317
34 | GGAUUGCGUUCGGCCGCCACUAGACUACAUUCCACGCCCGACCCGUUUUUAAGUGAUGUUUAAACUAGGACCGGGAACCGAUUUC [theeternabot_exclusion_KL_Trp_B_33] | 435 | 291 | 395 | 388 | –
35 | GGAUUUGAGUGAUGUUUAAAACGAGUGUCCAAGGAUAUUGCCCAAACAAGAAGGUGGGCAUGCUUUUGCGAUAAUCAACGGAGAC [theeternabot_exclusion_KL_FMN_A_9] | 408 | 666 | 451 | 606 | 291
36 | GGCAGUGAUGUUGCCAGUGGCAGAUGAGAAGGAGCGUGGUGAGACACAGGUAGGUCGCUCAUUGAAAUUGCUGUCACUAAAAUGC [#5] | 289 | 322 | 266 | 234 | 215
37 | GGCAGUGAUGUUGCCUAAGCAACGCAUGCAGAGGAUAUUCGUUCGGGAAGAAGGCUGCAGCGUUCUCUCGCGAGUGAUGUUCGCG [Same State FMN A GF 23] | 182 | 137 | 165 | 165 | 162
38 | GGCGGCUGCGCGCAAGCGCAGCCGGCCGAUACCAGCGCGACGGCGCGCCCUUGGCAGCGGCGCCGAGUGAUGUUCGGCCUGCCGG [#2 Same State - Theophylline A Attempt #19 (HarryS)] | 433 | 380 | 738 | 418 | 416
39 | GGGAGAAGAGCGGCCGCCACUCAGACAGCAGCAGAAUAUAGUGAUGUUAUAUAGGAAAGGCGGAGGAGGACCGGGCUUAAGAGGG [#20 K4 Tryptophan B Same State] | 308 | 303 | 278 | 362 | 316
40 | GGGAGAGCGCGAAGGAGCGCCCUGACAGGUUGCUGCCGUGGGCAGUGAUGUUGCUCAGUCCGGCAGGUAGGUCGCGUGCUCUCCC | 178 | 148 | 192 | 200 | 177
41 | GGGAGUAGUGCGGCCGCCACUGAGAAAGAAGAAGAAUAUAGUGAUGUUAUGUAGGAAAGGAAGAACAGGACCGGGCAUUAGAUUU [SSTRyptB.G] | 455 | 432 | 477 | 387 | 270
42 | GGGCCUGGGCCCGGAAGGGCCUGGGCCCGUUAGGAUAUGACGUGAUUCAGAAGGGAUGGGUGGAGUGAUGUUCCACCCGAGAGGG [#2 Same State - FMN A Attempt #25 (HarryS)] | 85.9 | 90.5 | 81.5 | 73.1 | 63.3
43 | GGGCUGGUGCUAGGAUAUGCGAUGAAUGCUCAGAAAACCUUGAGUCCGCAGUGAUGUUGCGGCACCGCAGAAGGAGCUAAGGCUC [Reorinraor] | 129 | 138 | 111 | 171 | 127
